Broadly, the Kd is the constant that tells how readily two partners part at equilibrium. A higher Kd goes with lower affinity.

From patent US20120315270A1 (UNITED STATES OF AMERICA AS REPRESENTED BY THE, published 2012) come the findings set out here.

For assay [1], the target named is T1, Motavizumab fragment of antigen binding (Fab).
T1 construct: also called motavizumab Fab
Nature of the assay: SPR (Biacore), motavizumab Fab immobilised, immunogen injected. For orientation: Surface plasmon resonance follows binding to a sensor surface in real time, without labels.

Assay [2] has as its target T1, Motavizumab fragment of antigen binding …. Described as above. This is another data set of the same source.
The target in assay [3] is motavizumab (as used in ITC). As to the kind of experiment: ITC. For orientation: ITC needs no label: the signal is the heat of the interaction.
The target of assay [4] is RSV F glycoprotein on GFP-expressing RSV (respiratory syncytial virus, UniProt P03420 26-574). Nature of the assay: cell-based or functional assay.
For another assay, the target named is 1lp1b-003 F2Y H15N. As to the kind of experiment: co-crystallization.
Another assay addresses T2, 1lp1b-003_K272E.
T2 construct: also called 1lp1b(K272E)
Nature of the assay: SPR (Example 7).

Substitutions are numbered along the chain they refer to. Read-outs that look alike come from different tables or passages of the source.

B1: 1s2xa_002 (designed binder)
chain: GSPNSRVDELGFNEAERQKILDSNSSLMRNANEVRDKFIQNYATSLKDSNDPQDFLRRVQELRINMQKNFISFDAYYNYLNNLVLASANRASQELSFINDTIKNNDTKKLFSNEAADNFNNFTADEVARISDLVASYLPREYLPPFIDGNMMGVAFQILGIDDFGKKLNEIVQDIGTKY
In the case of B1, the Kd in assay [1] and in assay [2] was 3.64 µM each time.

B2: 1s2xa_001 (designed binder)
chain: B1 chain with A91C, I98A, A115I
In the case of B2, the Kd in assay [1] and in assay [2] was 4.75 µM in each case.

B3: 1s2xa_003 (designed binder)
chain: GSPNSRVDELGFNEAERQKILDSNSSLMRNANEVRDKFIQNYATSLKDSNDPQDFLRRVQELRINMQKNFISFDAYYNYLNNLVLASANRASQELSFANDTIKNNDTKKLFSNEIADNFNNFTADEVARISDLVASYLPREYLPPFIDGNMMGVAFQILGIDDFGKKLNEIVQDIGTK
notes: also called Cag-Z
The molecule B3 displayed a Kd in assay [1] of 3 µM. Besides, the Kd in assay [2] was determined as 3 µM. Moreover, in assay [3], the “-TdS” value was 9.9, the Kd came to 0.147 µM and the dH was -19.2.

B4: 1s2xa_004 (designed binder)
chain: B3 chain with A98I, I115A
For B4, the Kd in assay [2] came to 3.95 µM. Moreover, in assay [3], the “-TdS” value amounted to 10.7, binding was put at a Kd of 0.275 µM and the dH is -19.6.

B5: motavizumab IgG (antibody, V domains shown)
VH: QVTLRESGPALVKPTQTLTLTCTFSGFSLSTAGMSVGWIRQPPGKALEWLADIWWDDKKHYNPSLKDRLTISKDTSKNQVVLKVTNMDPADTATYYCARDMIFNFYFDVWGQGTTVTVSS
VL: DIQMTQSPSTLSASVGDRVTITCSASSRVGYMHWYQQKPGKAPKLLIYDTSKLASGVPSRFSGSGSGTEFTLTISSLQPDDFATYYCFQGSGYPFTFGGGTKVEIK
Take B5: in assay [4], the “EC50 (read off the curve), neutralization of GFP-expressing RSV on HEp-2 cells, flow cytometry” value was about 0.06 nM.

B6: motavizumab (format in the assay not stated) (antibody, V domains shown)
VH: B5 VH
VL: B5 VL
Regarding B6, the binding result with 1lp1b-003 F2Y H15N is “binds”.

B7: motavizumab Fab (Fab, V domains shown)
VH: B5 VH
VL: B5 VL
notes: also called the Fab
In the case of B7, the binding result with 1lp1b-003_K272E is recorded as “no binding”.

B8: 2eiaa_001 (designed binder)
chain: APRGYTTWVNTIQTNGLLNEASQNLFGILSVDATSEEMNAFLDVVPGQAGQKQILLDAIDKIADDWDNRHPLPNAPLVAPPQGPIPMTARFIRGLGVPRERQMEPAFDQFRQTYRQWIIEAMSEGIKVMIGKPKAQNIRQGAKEPYPEFVSRLLSQINDEGHPNDIKKLRSNTLTIQNANEECRNAMRHLRPSDTGAEKMYACRDIG
B8: the binding result in assay [2] was “no binding”.
